Reference: patent US5932425A, “Compositions and methods for modulating cellular NF-κB activation” (Signal Pharmaceuticals, Inc., priority 1997, dated 1999)
Non-standard residues stand in square brackets, D forms with d. No end group written: not given here. pS = N[C@@H](COP(=O)(O)O)C(=O)O

Legend:
[1] = target: pIκBα ubiquitination (E3 ubiquitin ligase); assay: In vitro ubiquitination assay of phosphorylated, NF-κB complex-associated IκBα; assay type: biochemical, human; conditions: complex-associated 35S-pIκBα, HeLa extract, Bestatin 40 μg/ml; read-out: IC50 of inhibition of the pIκBα ubiquitin conjugation reaction
Description: Following incubation, 1 μl of anti-p65 serum was added, and the NF-κB immune complex was immobilized to Protein A-Sepharose® and subjected to in vitro ubiquitination in HeLa cell extract as described by Alkalay et al. Ubiquitinated proteins were separated by SDS-PAGE and visualized by autoradiography.
To identify the IκBα-ubiquitin ligase recognition motif, various peptides were added at varying concentrations to the reaction mixtures in the presence of the peptidase inhibitor Bestatin (40 μg/ml). The peptides spanned the N-terminal signaling domain of the protein, and were phosphorylated at one or both serine residues (32 and 36), or were unmodified or serine-substituted. These peptides were included in the ubiquitination reaction at different concentrations and tested for inhibition of pIκBα specific ubiquitination. When conjugation of free IκBα was monitored, the translated protein was added directly to the conjugation reaction mixture.

[2] = tested on: NF-κB nuclear translocation in HeLa cells; assay: Microinjection into HeLa cells, TNFα activation, p65 nuclear staining; assay type: cell-based, human; conditions: 5 mg/ml microinjected, TNFα 200 units/mL for 20 minutes
Description: Following microinjection, cells are stimulated (e.g., with TNFα) and incubated to allow NF-κB activation. In HeLa cells, TNFα induces rapid nuclear translocation of NF-κB into the nucleus, which may be detected by staining with p65-specific antibodies. Modulating agents induce a statistically significant decrease in NF-κB translocation, and may reduce such translocation to undetectable levels.
(§1) HeLa cells were plated on a grid coverslips (Cellocate, Eppendorf) 18 hours before microinjection. Microinjection was performed with a 22 amino acid pIκBα peptide (pp21; Table I and SEQ ID NO:9) or a control phospho-Fos peptide (SEQ ID NO:10) using a semi-automated apparatus (Eppendorf). Peptides were injected into the cell cytoplasm at a concentration of 5 mg/ml in 100 mM KCl, 5 mM Na2 HPO4 (pH 7.2), and immediately activated with TNFα (200 units/mL) for either 20 minutes (for NF-κB translocation) or 3 hours (for E-selectin expression). Following activation, the cells were fixed and stained with p65 specific antibodies (Mercurio et al., Genes & Dev. 7:705, 1993; Santa Cruz) or monoclonal anti-E-selectin antibodies (R&D Systems).

[3] = tested on: E-selectin expression in HUVEC; assay: Microinjection into HUVEC, TNFα activation, E-selectin staining; assay type: cell-based, human; conditions: 5 mg/ml microinjected, TNFα 3 hours
Description: Primary human vascular endothelial cells (HUVEC) respond to TNFα stimulation by surface expression of NF-κB regulated adhesion proteins such as ICAM-1, V-CAM-1 and E-selectin (Read et al., Immunity 2:493,1995; Chen et al., J. Immunol 155:3538, 1995). E-selectin expression is particularly NF-κB dependent and is the major inducible endothelial adhesion molecule for initial neutrophil attachment and rolling on activated endothelium. Stimulated cells may be fixed and stained to detect expression of one or more NF-κB regulated adhesion proteins.
as §1, with “Systems). […]” for “Systems).”

[4] = target: specific E3 ubiquitin ligase that recognises phosphorylated IκB

CDS*GLDS*M (CD[pS]GLD[pS]M) [pp7]
IC50 [1]: 10 µM

CKKERLLDDRHDS*GLDS*MKDEE (CKKERLLDDRHD[pS]GLD[pS]MKDEE) [pp21]
microinjected cells in which TNFα-stimulated NF-κB activation was abolished [2]: 50%-70%
microinjected cells with inhibition of E-selectin expression [3]: 70%-80%

CD[pS]GLD[pS]M [doubly phosphorylated IκBα peptide pp7]
IC50 of inhibition of pIκBα ubiquitination [4]: 10 µM

CKKERLLDDRHD[pS]GLD[pS]MKDEE [doubly phosphorylated IκBα peptide pp21]
IC50 of inhibition of the pIκB conjugation reaction [4]: 5 µM

CERLLDDRHD[pS]GLD[pS]MKDEE [doubly phosphorylated IκBα peptide pp19]
IC50 of inhibition of the pIκB conjugation reaction [4]: 5 µM

CDDRHD[pS]GLD[pS]M [doubly phosphorylated IκBα peptide pp11]
IC50 of inhibition of the pIκB conjugation reaction [4]: 5 µM

CKKERLLDDRHD[pS]GLDSMKDEE [singly phosphorylated IκBα peptide ppS32]
IC50 of inhibition of the pIκBα conjugation [4]: 400 µM

CKKERLLDDRHDSGLD[pS]MKDEE [singly phosphorylated IκBα peptide ppS36]
IC50 of inhibition of the pIκBα conjugation [4]: 400 µM

CDDRHD[pS]GLD[pS]MKDEE [doubly phosphorylated IκBα peptide pp15]
IC50 of inhibition of the pIκB conjugation reaction [4]: 5 µM
